Measured values: the DeepSol protein solubility set

experiment: soluble on expression in E. coli; label from the status in PepcDB or PDB records

Soluble on expression in E. coli, soluble:
GPGSMAALAALEKEVADLKRVRVFNETVRTGVERVLASLPSPENEKDTSTKVRILLLRSQATLLLPRVSREAEKDLNAALKLQPGSATTWVELSECLLRRNAFKEACDALDNALRVNPAHTEALCKYSQIQRNRCGGEGVTADQRKAYLEDAVAKARAAVGSNVDDADAWNTLALSLLSKVTLEGMTFDGVRKALAAMQQAERKCPEDPDVPYNKAVLESLLGHFGAAAMDYWRAHALDKDRLKGTRHLSEENAKVLLRAQSRMRTSSGIGKRDFQRICTRIEQAHKKYTQSTSAKVVGVLDIVTEPTMQPVTLLVSDGKGDFVLLLLHEVRPTCFKIGDVIAYPVTTPVETITHNIVACPGVEEEPLKLTLSHAYPNPKSILVNGQPLPSSAHVPLQMSSRLFA
MSLTFELYSGATFFRSRSAATKKVRDMQKERLKYVQEVYKVLATYVNFPKVCLPELIEKSIYEITEEEIVKKAEELRKIWGLDLISPVPNLIQLAEQNGVIISEANMSNPTLDAVSRWMIGRPFIMLTDNHESAVRRRFNVAHELGHILLHNGVESIHEYSQTELKNIIEYQANLFAAHFLLPSAAFSDSLLSISLEYYIDLKKYWKVSLQSMIQKIYTLALINDDQRLYLNKRIAKNKWKTKEPYDEQLTIEQPEVFQKVYHMILEHQVIPASQLNQAFKLPKEEIEKILGTAIQTEQDKTEIVLELLRSNKEGHHHHHH
MRGSHHHHHHKHGQFTLRDMYEQFQNIMKMGPFSQILGMIPGFGTDFMSKGNEQESMARLKKLMTIMDSMNDQELDSTDGAKVFSKQPGRIQRVARGSGVSTRDVQELLTQYTKFAQMVKKMGGIKGLF
MSLFIPKRVIFEKDSLDYEAAKNILNKFKDKKDVEIINITSNKLKQHIPGEDFYAQYREGKKTLVVGTKKSLKFQSCKPSAHYQLPLISGCMGQCEYCYLNTKLGDKPFVKVHVNIDEILSQAQKYIDERLPEITIFEGAATSDPIPVEPYTHSLEKAIVFFGKHENARFRFVTKYNDIDSLLDLEHNGHTEMRFSINTSSVINKYEHATASRDLRIEASIKAAKAGYPIGFLVAPVFIYPNWKEEYHDLLLSLSKNLPRDLKTPVTFEIISHRYTSTAKNIILQVFPESELPMSDEERKFKYGQFGYGKYVYPKENIDEMKQFFIKEIEDLFENKEIKYVIEGHHHHHH
MTSNQLAQYIDHTALTAEKNEQDISTLCNEAIEHGFYSVCINSAYIPLAKEKLAGSNVKICTVVGFPLGANLTSVKAFETQESIKAGANEIDMVINVGWIKSQKWDEVKQDIQAVFNACNGTPLKVILETCLLTKDEIVKACEICKEIGVAFVKTSTGFNKGGATVEDVALMKNTVGNIGVKASGGVRDTETALAMIKAGATRIGASAGIAIISGTQDTQSTYLEHHHHHH
MRGSHHHHHHTDPALRAMATLLQLHFAFNGPFGDAMAEQLKPLAESINQEPGFLWKVWTESEKNHEAGGIYLFTDEKSALAYLEKHTARLKNLGVEEVVAKVFDVNEPLSQINQAKLAGLCGR

Soluble on expression in E. coli, not soluble:
MTSELKNNEEDYNSSSDEDYDPTKDTDFDPKDEIDDQEECEDGIDEEVEHLKNEKQSDDHTSEKANSTEGSVDVDAIFAELTGLAPKPVVNDTSSKNIPKTEERVYPKSAASASNESTNQKVYPKKTETAGTSSESSIVPGKKRVGLLDAAKSLSKRSKISVLEKSDRDWKDFTTQNNLKEDLESHNRGKGGYLNKMDFLNRADNRQFEKERAFRATARKDTGQ
RIGVIGTGAIGGFYGLMLAHAGHDVHFLLRSEFEAVNRAGLSLNSAVHGFRRLAPVQAYHSAQDMPPCDWLLVGAKTTGNDELAPLIRAAAAPGAKVLLLQNGLGVEERLRPLLPESLHLLGGLCFICVHRGEPGVIEHQAYGGVNLGYHSGPADERRRREIVEEGAALFRESGLESTAMPDLEQARWQKLVWNIPYNGLSVLLKSSTAPLMANADSRSLIEAIMEEVIGAAGACGFILPEGYADQLLAATERMPDYRPSMYHDFAHGRPLELAAIYAAPLARAAA
MANFMSKEAPFWKVKKLEEMSLSEWESLCDGCGLCCLHKVEDDDTGDIYATSVACRLLDSETCRCRNYVHRKSIVPDCIFLNLATIKTVRWLPENCAYRLIYEGKDLYWWHPLVSGNYQTVHQTQFSARGQIEIYEDELSSEEDYLQYITGILCEGR
MGSDKIHHHHHHMQERGLVGLGLRREMLSEFCQQLPSAIDFLEVAPENWMTLGGKYGKQFRQLTEQHTFFCHGLSLSIGSPEPLDLEFVRRIKAFMDLHQIDVYSEHLSYCSGAGHLYDLMPIPFTEAAVKHVARRVKQVEDILYRPLILENVSFYAAPSAQMTELAFLTAVLEEADCKLLLDVNNIYVNSINHQYDALAFLKAMPTERIAYLHIAGHFKESEELLIDTHGSDINAPVWALLDSCYAEHGVLPTLLERDFNLPATAHLLDEINQIHAYQARAKSNLDKRIA
MMKKEKELLVAIASQKGGVGKSVFTVLLASVLHYRKDVRVAVVDCDSPQHSIALMRERDMENVMKNDDLKVNLYRQYERIRKPAYPVIKSDPEKGVEDLRRYMDEKGETFDIVLFDLPGTLRSEGVVHTVAAMDYIFVPLKADNIVMQSSLQFTKVLEEELIAKGNCNLKGIRLFWNMVDRRGRKNLYDAWNRVIHRMGLRLLSSHIPNTLRYNKEADPVCKGVFRSTLFPPDPRQEKDSGLPELVEAAFFGRDPGITLL
MGSDKIHHHHHHNYENINSNPYEAPDLSADGYALGSAMNNLAGCVVSPDVNTAQFTDCLLGGPLGGYFADSNAGFTETISNFNPKDDWSRVFLKSDKIIPTLYSNLTQVKLVSQNTNDPVPYAIAQVIKVAAMHRVTDAFGPIPYSQIGANGEIATPYDSQEVTYNTFFDELNAAIATLNENSNEQLVPTADYIYKGDVKKWIRFANSLKLRLAIRIAYANPVKAQQMAEEAVNPANGGVIESNADNATWNYFETSQNPIYVATRYNQVQTSDHGGVPCLTGGDTHAAADIICYMNGYKDNRREKFFTKSEWAGQDYVGMRRGIVIPELKTTGHKYSGVNIAPTSPLYWMNAAEVAFLRAEGQAVFNFSMGGTAESFYNQGIRLSFEQWGADGVEDYLKDDVNKPTAYTDPAGTNTYQNALSNITIKWNDSADKEEKQERIIVQKWIANWQLGNEAWADFRRTGYPKLIPVKENKSGGVVDSEKGARRMPYPLDEFVSNKANVEYAIANYLHGADNMATDVWWASKK
MGSDKIHHHHHHMIFTLPNTTTQEIAKTLVKIRDTGGQVTTSRVLTLIVVARDTSDVEGIIRATNEASQEHPSRVIILVAGSHEGESQVDAEVRIGGDAGASEMILIKLAGRVAKHLVHVVTPLLLPDTPIVAWWPSSAPINPAEDPIGKIAQRRITDSHFDPPVDALYNRRNHYAPGDSDFSWARLTPWRGVLASSLDQAPYEMVQDVRVYGESDCPSVDLAAGWLCERLGISVERHNYGSGSAAFDDAGLAKIPVKRIELERPSGCVVIEALDDDQTLSVSIPGRSTAHVAVTRRSQADCLAEELRHLDPDIAYARALRGLSRVSYPTQ
MNLVKLLANNWQPIAIIALVGTGLAVSHHQGYKSAFAKQQAVIDKMERDKAQALLLSAQNYARELELARAEAKKYEVKAHAVGMALAKKQAEVSRLKTERDLCKIPFPPDSRNPNTGFRLFSPQIPPNFTQIPP
MRNTKIRAVQYGCGKMSKVILNYLVDHGVEIVGAIDKNPAVVGQDIGDFAGFGHKTGIIISDKADQVFDNCDADIAIVTIFSYMPEMYEFYEMAIKHGVNVISTCEEAIYPWTTSPSETNRLDKLAKENHVTIMGSGMQDIYWINMPCLAMAGMNKIKKVRGVVSYNVEDYGLALAEAHGAGYDLERFERDIASAESLPSYMWNAAEAICSKMNWTIQSINQKSVPYILDEDVYSETLGRTIPAGQVTGMSAVTKVQTHQGIDLEVECIGKVYRQDDGDMCDWEITGEPDLIFSVNKPDTVALTCGTIVNRIPTVLDAPAGYITSEKARLITYPSYPLHTYVEK
